# B1: Purified recombinant human ADAMTS13 (rADAMTS13, Takeda, Vienna, Austria) from a Chinese hamster ovary cell line (protein)
# chain: AAGGILHLELLVAVGPDVFQAHREDTERYVLTNLNIGAELLRDPSLGAQFRVHLVKMVILTEPEGAPNITANLTSSLLSVCGWSQTINPEDDTDPGHADLVLYITRFDLELPDGNRQVRGVTQLGGACSPTWSCLITEDTGFDLGVTIAHEIGHSFGLEHDGAPGSGCGPSGHVMASDGAAPRAGLAWSPCSRRQLLSLLSAGRARCVWDPPRPQPGSAGHPPDAQPGLYYSANEQCRVAFGPKAVACTFAREHLDMCQALSCHTDPLDQSSCSRLLVPLLDGTECGVEKWCSKGRCRSLVELTPIAAVHGRWSSWGPRSPCSRSCGGGVVTRRRQCNNPRPAFGGRACVGADLQAEMCNTQACEKTQLEFMSQQCARTDGQPLRSSPGGASFYHWGAAVPHSQGDALCRHMCRAIGESFIMKRGDSFLDGTRCMPSGPREDGTLSLCVSGSCRTFGCDGRMDSQQVWDRCQVCGGDNSTCSPRKGSFTAGRAREYVTFLTVTPNLTSVYIANHRPLFTHLAVRIGGRYVVAGKMSISPNTTYPSLLEDGRVEYRVALTEDRLPRLEEIRIWGPLQEDADIQVYRRYGEEYGNLTRPDITFTYFQPKPRQAWVWAAVRGPCSVSCGAGLRWVNYSCLDQARKELVETVQCQGSQQPPAWPEACVLEPCPPYWAVGDFGPCSASCGGGLRERPVRCVEAQGSLLKTLPPARCRAGAQQPAVALETCNPQPCPARWEVSEPSSCTSAGGAGLALENETCVPGADGLEAPVTEGPGSVDEKLPAPEPCVGMSCPPGWGHLDATSAGEKAPSPWGSIRTGAQAAHVWTPAAGSCSVSCGRGLMELRFLCMDSALRVPVQEELCGLASKPGSRREVCQAVPCPARWQYKLAACSVSCGRGVVRRILYCARAHGEDDGEEILLDTQCQGLPRPEPQEACSLEPCPPRWKVMSLGPCSASCGLGTARRSVACVQLDQGQDVEVDEAACAALVRPEASVPCLIADCTYRWHVGTWMECSVSCGDGIQRRRDTCLGPQAQAPVPADFCQHLPKPVTVRGCWAGPCVGQGTPSLVPHEEAAAPGRTTATPAGASLEWSQARGLLFSPAPQPRRLLPGPQENSVQSSACGRQHLEPTGTIDMRGPGQADCAVAIGRPLGEVVTLRVLESSLNCSAGDMLLLWGRLTWRKMCRKLLDMTFSSKTNTLVVRQRCGRPGGGVLLRYGSQLAPETFYRECDMQLFGPWGEIVSPSLSPATSNAGGCRLFINVAPHARIAIHALATNMGAGTEGANASYILIRDTHSLRTTAFHGQQVLYWESESSQAEMEFSEGFLKAQASLRGQYWTLQSWVPEMQDPQSWKGKEGT
# Biological target: von Willebrand factor (VWF) in plasma of patients with severe COVID-19, P04275
protein,measurement,value
B1,"Decrease (%) of VWF:CB 0 vs. 5 hrs, plasma B1",65%
same,"Decrease (%) of VWF:CB 0 vs. 5 hrs, plasma B2",60%
same,"Decrease (%) of VWF:CB 0 vs. 5 hrs, plasma B5",65%
same,"Decrease (%) of VWF:CB 0 vs. 5 hrs, plasma B7",52%
same,"Decrease (%) of VWF:CB 0 vs. 5 hrs, plasma B15",44%
same,"Decrease (%) of VWF:CB 0 vs. 5 hrs, plasma B18",63%
same,"Decrease (%) of VWF:CB 0 vs. 5 hrs, plasma S6",33%
same,"Decrease (%) of VWF:CB 0 vs. 5 hrs, plasma S10",60%
same,"Decrease (%) of VWF:CB 0 vs. 5 hrs, plasma S12",53%
same,"Decrease (%) of VWF:CB 0 vs. 5 hrs, plasma S21",44%
same,"Dimer relative to total multimer content (AUC %) at 0 hrs, plasma B1",3.6 AUC %
same,"Dimer relative to total multimer content (AUC %) at 0 hrs, plasma B2",5.4 AUC %
same,"Dimer relative to total multimer content (AUC %) at 0 hrs, plasma B5",3.7 AUC %
same,"Dimer relative to total multimer content (AUC %) at 0 hrs, plasma B7",5.3 AUC %
same,"Dimer relative to total multimer content (AUC %) at 0 hrs, plasma B15",5.1 AUC %
same,"Dimer relative to total multimer content (AUC %) at 0 hrs, plasma B18",3.6 AUC %
same,"Dimer relative to total multimer content (AUC %) at 0 hrs, plasma S6",5.4 AUC %
same,"Dimer relative to total multimer content (AUC %) at 0 hrs, plasma S21",4.9 AUC %
same,"Dimer relative to total multimer content (AUC %) at 5 hrs, plasma B1",9.1 AUC %
same,"Dimer relative to total multimer content (AUC %) at 5 hrs, plasma B2",11.3 AUC %
same,"Dimer relative to total multimer content (AUC %) at 5 hrs, plasma B5",11 AUC %
same,"Dimer relative to total multimer content (AUC %) at 5 hrs, plasma B7",10.1 AUC %
same,"Dimer relative to total multimer content (AUC %) at 5 hrs, plasma B15",12.3 AUC %
same,"Dimer relative to total multimer content (AUC %) at 5 hrs, plasma B18",7 AUC %
same,"Dimer relative to total multimer content (AUC %) at 5 hrs, plasma S6",7 AUC %
same,"Dimer relative to total multimer content (AUC %) at 5 hrs, plasma S21",8.5 AUC %
same,"Increase (%) of dimer 0 vs. 5 hrs, plasma B1",253%
same,"Increase (%) of dimer 0 vs. 5 hrs, plasma B2",209%
same,"Increase (%) of dimer 0 vs. 5 hrs, plasma B5",297%
same,"Increase (%) of dimer 0 vs. 5 hrs, plasma B7",191%
same,"Increase (%) of dimer 0 vs. 5 hrs, plasma B15",241%
same,"Increase (%) of dimer 0 vs. 5 hrs, plasma B18",194%
same,"Increase (%) of dimer 0 vs. 5 hrs, plasma S6",130%
same,"Increase (%) of dimer 0 vs. 5 hrs, plasma S21",173%
same,"UHMW VWF multimers by semi-automated electrophoresis, plasma B1, 10 IU/mL rADAMTS13",disappearance of all the abnormal UHMW VWF multimers
same,"UHMW multimer quantitation parameter after 5 h with 10 IU/mL rADAMTS13, plasma B1",to a level lower than that observed in control plasma (88%)
same,"UHMW multimer quantitation parameter before incubation, plasma B1 (home cast gels)",the elevated UHMW multimer quantitation parameter of 124%
same,"VWF:CB (IU/mL) at 0 hrs, plasma B1, 1 IU/mL rADAMTS13",3.09 IU/mL
same,"VWF:CB (IU/mL) at 0 hrs, plasma B2, 1 IU/mL rADAMTS13",1.39 IU/mL
same,"VWF:CB (IU/mL) at 0 hrs, plasma B5, 1 IU/mL rADAMTS13",2.46 IU/mL
same,"VWF:CB (IU/mL) at 0 hrs, plasma B7, 1 IU/mL rADAMTS13",3.03 IU/mL
same,"VWF:CB (IU/mL) at 0 hrs, plasma B15, 1 IU/mL rADAMTS13",2.44 IU/mL
same,"VWF:CB (IU/mL) at 0 hrs, plasma B18, 1 IU/mL rADAMTS13",2.25 IU/mL
same,"VWF:CB (IU/mL) at 0 hrs, plasma S6, 1 IU/mL rADAMTS13",2.19 IU/mL
same,"VWF:CB (IU/mL) at 0 hrs, plasma S10, 1 IU/mL rADAMTS13",6.48 IU/mL
same,"VWF:CB (IU/mL) at 0 hrs, plasma S12, 1 IU/mL rADAMTS13",3.01 IU/mL
same,"VWF:CB (IU/mL) at 0 hrs, plasma S21, 1 IU/mL rADAMTS13",3.7 IU/mL
same,"VWF:CB (IU/mL) at 5 hrs, plasma B1, 1 IU/mL rADAMTS13",2.02 IU/mL
same,"VWF:CB (IU/mL) at 5 hrs, plasma B2, 1 IU/mL rADAMTS13",0.84 IU/mL
same,"VWF:CB (IU/mL) at 5 hrs, plasma B5, 1 IU/mL rADAMTS13",1.61 IU/mL
same,"VWF:CB (IU/mL) at 5 hrs, plasma B7, 1 IU/mL rADAMTS13",1.58 IU/mL
same,"VWF:CB (IU/mL) at 5 hrs, plasma B15, 1 IU/mL rADAMTS13",1.08 IU/mL
same,"VWF:CB (IU/mL) at 5 hrs, plasma B18, 1 IU/mL rADAMTS13",1.42 IU/mL
same,"VWF:CB (IU/mL) at 5 hrs, plasma S6, 1 IU/mL rADAMTS13",0.73 IU/mL
same,"VWF:CB (IU/mL) at 5 hrs, plasma S10, 1 IU/mL rADAMTS13",3.91 IU/mL
same,"VWF:CB (IU/mL) at 5 hrs, plasma S12, 1 IU/mL rADAMTS13",1.6 IU/mL
same,"VWF:CB (IU/mL) at 5 hrs, plasma S21, 1 IU/mL rADAMTS13",1.63 IU/mL
same,mean VWF:CB of ten patient samples after 5 h incubation with 1 IU/mL rADAMTS13,decreased from 3.01 (SD: 1.37; SEM: 0.434) to 1.64 (SD: 0.89; SEM 0.28) IU/mL
same,mean VWF:CB of ten patient samples before incubation with 1 IU/mL rADAMTS13,decreased from 3.01 (SD: 1.37; SEM: 0.434) to 1.64 (SD: 0.89; SEM 0.28) IU/mL
same,"reduction in VWF activity at 5 h, plasma B1, 10 IU/mL rADAMTS13",more than a 60% reduction at 5 h
same,"reduction in VWF activity within 5 h, plasma B1, 1 IU/mL rADAMTS13","within 5 h, VFW activity reduced by about 30%"
same,"reduction of the UHMW multimer quantitation parameter after 5 h with 1 IU/mL rADAMTS13, plasma B1",reduced by 16% after 5 h of incubation with 1 IU/mL rADAMTS13
same,"reduction of the UHMW multimer quantitation parameter after 5 h with 10 IU/mL rADAMTS13, plasma B1",by 36% with 10 IU/mL rADAMTS13

# From patent publication US20230201319
